Earlier results on one substance are cited in paper PMC6953019.

The target in the data set is TβRII (Homo sapiens) (UniProt P37173). Put plainly: SPR.
TβRII (Homo sapiens), sequence (P37173 23-166): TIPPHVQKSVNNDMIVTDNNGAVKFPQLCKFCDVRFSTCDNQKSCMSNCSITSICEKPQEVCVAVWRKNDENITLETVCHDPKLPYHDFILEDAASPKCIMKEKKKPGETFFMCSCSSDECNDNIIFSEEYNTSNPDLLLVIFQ

TGFβ2, sequence (P61812 303-414): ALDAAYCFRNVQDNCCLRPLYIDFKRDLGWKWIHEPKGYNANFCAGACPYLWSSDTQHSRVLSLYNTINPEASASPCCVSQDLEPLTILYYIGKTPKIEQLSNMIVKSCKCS

Usually Kd stands for the concentration at which binding is half-saturated. Consider TGFβ2 (from UniProt P61812), for which the Kd is 5 nM.
